Test results: US20240043506A1 (GARVAN INSTITUTE OF MEDICAL RESEARCH, published 2024)

What was measured:
[1] = target: T1, SARS-CoV-2 S protein RBD (residues 319-541 of the S protein), soluble, with C-terminal Avitag and His tag (SARS-CoV-2, UniProt P0DTC2 319-541); experiment: biolayer interferometry (BLItz), […]
[2] = target: T1, SARS-CoV-2 S protein RBD (residues …); experiment: biolayer interferometry (BLItz), […], global fit

Binder | Kd [1] [nM] | Kd [2] [nM]
C12K-D12 (antibody, V domains shown) VH: EVQLLESGGGLVQPGGSLRLSCAASGFRISDEDMGWVRQAPGKGLEWVSYIDNAGASTYYADSVKGRFTISRDNSKNTLYLQMNSLRAEDTAVYYCAKSLGPNPEFDYWGQGTLVTVSS VL: DIQMTQSPSSLSASVGDRVTITCRASQSISSYLNWYQQKPGKAPKLLIYYASNLQSGVPSRFSGSGSGTDFTLTISSLQPEDFATYYCQQGLGMPITFGQGTKVEIK | 1 | 
G1K-C4 (antibody, V domains shown) VH: EVQLLESGGGLVQPGGSLRLSCAASGFRFDYEDMGWVRQAPGKGLEWVSSIDSHGASTYYADSVKGRFTISRDNSKNTLYLQMNSLRAEDTAVYYCAKYSHSVSYGPFDYWGQGTLVTVSS VL: DIQMTQSPSSLSASVGDRVTITCRASQYISYDLNWYQQKPGKAPKLLIYSASSLQSGVPSRFSGSGSGTDFTLTISSLQPEDFATYYCQQTNTYPQTFGQGTKVEIK |  | 59
C12K-G10 (antibody, V domains shown) VH: EVQLLESGGGLVQPGGSLRLSCAASGFRISDEDMGWVRQAPGKGLEWVSYIDNAGASTYYADSVKGRFTISRDNSKNTLYLQMNSLRAEDTAVYYCAKSLNSLGVFDYWGQGTLVTVSS VL: DIQMTQSPSSLSASVGDRVTITCRASQSIYDYLNWYQQKPGKAPKLLIYYASALQSGVPSRFSGSGSGTDFTLTISSLQPEDFATYYCQQGLGMPITFGQGTKVEIK | 0.788 | 
